# Source: US20210238253A1 (GUANGDONG ZHAOTAI INVIVO BIOMEDICINE, published 2021)
# T1: hCD19-his (human CD19 recombinant protein, Pro20-Lys291, His tag at C-terminus) (human, UniProt P15391 20-291)
# T1 construct: range 20-291; also called human CD19-His
# T1 sequence (looked up): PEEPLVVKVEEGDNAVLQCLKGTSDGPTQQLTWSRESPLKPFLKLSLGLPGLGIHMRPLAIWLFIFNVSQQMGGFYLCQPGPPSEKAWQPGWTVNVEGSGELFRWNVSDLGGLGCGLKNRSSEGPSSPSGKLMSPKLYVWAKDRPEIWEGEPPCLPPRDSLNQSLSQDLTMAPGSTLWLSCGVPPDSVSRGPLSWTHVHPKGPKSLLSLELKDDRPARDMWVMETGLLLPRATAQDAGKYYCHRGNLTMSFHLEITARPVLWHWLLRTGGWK
# T2: hVISTA-his (human, UniProt Q9H7M9 33-194)
# T2 construct: Coated antigen of the specificity ELISA
# T2 sequence (looked up): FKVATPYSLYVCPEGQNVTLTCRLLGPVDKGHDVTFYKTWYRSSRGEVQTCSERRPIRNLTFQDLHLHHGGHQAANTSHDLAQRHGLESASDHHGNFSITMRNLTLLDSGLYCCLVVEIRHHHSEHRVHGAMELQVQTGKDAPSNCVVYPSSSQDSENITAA
# T3: hLAG3 (human, UniProt P18627 23-450, limits assumed)
# T3 construct: Coated antigen of the specificity ELISA
# T3 sequence (looked up): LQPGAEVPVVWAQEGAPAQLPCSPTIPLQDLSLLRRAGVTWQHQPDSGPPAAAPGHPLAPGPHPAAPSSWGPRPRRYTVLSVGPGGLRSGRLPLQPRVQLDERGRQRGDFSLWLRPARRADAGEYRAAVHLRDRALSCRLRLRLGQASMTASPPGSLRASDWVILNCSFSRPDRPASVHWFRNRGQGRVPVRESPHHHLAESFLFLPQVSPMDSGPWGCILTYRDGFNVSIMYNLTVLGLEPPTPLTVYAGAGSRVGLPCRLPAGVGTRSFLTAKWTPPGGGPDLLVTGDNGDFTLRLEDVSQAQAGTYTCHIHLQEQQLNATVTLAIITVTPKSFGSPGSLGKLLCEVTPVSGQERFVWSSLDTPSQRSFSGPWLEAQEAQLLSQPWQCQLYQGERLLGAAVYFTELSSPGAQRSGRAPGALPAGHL
# T4: CD19 expressed by Nalm6 cells (UniProt P15391 20-556, limits assumed)
# T4 construct: whole, on cells; Endogenous CD19 on tumor cell lines; also called Nalm6/GL; CD19 antigen on RAJI-GL and NALM6-GL tumor cells
# T4 sequence (looked up): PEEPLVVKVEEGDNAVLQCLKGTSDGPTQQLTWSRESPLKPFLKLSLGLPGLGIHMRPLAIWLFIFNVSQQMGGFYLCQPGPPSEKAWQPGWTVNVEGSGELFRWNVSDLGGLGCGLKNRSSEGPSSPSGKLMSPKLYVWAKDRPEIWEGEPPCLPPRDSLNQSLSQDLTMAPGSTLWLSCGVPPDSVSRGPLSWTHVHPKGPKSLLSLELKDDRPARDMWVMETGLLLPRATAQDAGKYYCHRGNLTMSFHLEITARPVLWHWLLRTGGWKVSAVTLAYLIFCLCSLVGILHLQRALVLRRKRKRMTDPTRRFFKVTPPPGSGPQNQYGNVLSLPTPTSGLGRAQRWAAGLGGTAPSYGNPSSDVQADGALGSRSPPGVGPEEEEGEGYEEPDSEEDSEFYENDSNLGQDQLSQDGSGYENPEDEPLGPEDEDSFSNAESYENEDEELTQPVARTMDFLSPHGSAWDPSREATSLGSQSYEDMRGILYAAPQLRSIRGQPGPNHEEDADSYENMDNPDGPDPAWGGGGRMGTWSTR
# T5: CD19 expressed by Nalm6 cells (UniProt P15391 20-556)
# T5 chain: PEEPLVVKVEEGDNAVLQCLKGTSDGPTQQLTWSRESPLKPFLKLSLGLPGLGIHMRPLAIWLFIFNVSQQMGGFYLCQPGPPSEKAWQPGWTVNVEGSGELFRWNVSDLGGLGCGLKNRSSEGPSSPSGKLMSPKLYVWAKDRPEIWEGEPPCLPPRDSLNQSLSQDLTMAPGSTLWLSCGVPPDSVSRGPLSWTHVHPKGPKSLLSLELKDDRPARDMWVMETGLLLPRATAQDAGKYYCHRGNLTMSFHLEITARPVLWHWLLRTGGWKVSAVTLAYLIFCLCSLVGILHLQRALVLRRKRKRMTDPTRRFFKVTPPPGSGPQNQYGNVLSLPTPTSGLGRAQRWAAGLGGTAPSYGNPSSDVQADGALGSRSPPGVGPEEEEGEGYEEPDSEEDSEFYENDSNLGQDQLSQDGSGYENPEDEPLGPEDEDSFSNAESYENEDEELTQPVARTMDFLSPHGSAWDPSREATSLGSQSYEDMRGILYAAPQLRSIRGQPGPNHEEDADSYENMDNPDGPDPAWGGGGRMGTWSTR
# What was measured:
# [1] = biological target: T1, hCD19-his (human CD19 recombinant …); test: ELISA, coated hCD19-His, fully humanized antibody titrated
# Protocol: According to the method described in Example 4, 0.5 μg/ml of hCD19-His was spread and incubated. The fully humanized antibodies were serially diluted and added to bind the incubated antigen. The binding signal of each antibody could be detected with HRP-labeled goat […] Fc antibody. The results are shown in FIG. 5 and Table 5, as follows: […]
# [2] = biological target: T1, hCD19-his (human CD19 recombinant …); test: ELISA, coated hCD19-His
# Protocol: The antibodies were screened by ELISA according to Example 2. Briefly, […] of hCD19-His (ACRO) were spread and incubated. The purified antibodies were serially diluted to bind the incubated antigen. The binding signal of each antibody could be detected with HRP-labeled goat anti-rat Fc antibody.
# Graphpad Prism software was used to calculate the fitting data.
# h41BB = biological target: T6, h41BB (human, UniProt Q07011 24-186); test: ELISA, coated antigen 0.5 µg/ml
# T6 construct: Coated antigen of the specificity ELISA
# Protocol: (§1) According to the method described in Example 4, 0.5 μg/ml of hCD19-His, hVISTA-his, hPD-L1, hCD40, h41BB and hLAG3 were spread and incubated respectively, and 2μg/ml of purified antibodies were added to bind the incubated antigen. The binding signal of each antibody could be detected with HRP-labeled goat anti-rat Fc antibody.
# hPD-L1 = biological target: T7, hPD-L1 (human, UniProt Q9NZQ7 19-238, limits assumed); test: ELISA, coated antigen 0.5 µg/ml
# T7 construct: Coated antigen of the specificity ELISA
# Protocol: as §1
# hVISTA-his = biological target: T2, hVISTA-his; test: ELISA, coated antigen 0.5 µg/ml
# Protocol: as §1
# hLAG3 = biological target: T3, hLAG3; test: ELISA, coated antigen 0.5 µg/ml
# Protocol: as §1
# hCD40 = biological target: T8, hCD40 (human, UniProt P25942 21-193); test: ELISA, coated antigen 0.5 µg/ml
# T8 construct: Coated antigen of the specificity ELISA
# Protocol: as §1
# [3] = biological target: T4, CD19 expressed by Nalm6 cells; test: flow cytometry on Nalm6 cells
# Protocol: The CD19-expressing tumor cells Nalm6 in logarithmic growth phase were collected and resuspended in PBS at a cell density of 10⁵/well, 100 μl/well. The diluted CD19 antibodies were added into the well and incubated at 4° C. for 1 hour. The cells were washed three times with flow cytometry wash buffer. Anti-rat IgG-Alexa Fluor 647 (Abcam, Cat #ab150163) was added and incubated at 4° C. for 1 hour. The cells were washed three times with flow cytometry wash buffer. The samples were analyzed by flow cytometry. The results are shown in FIG. 3 and Table 4, as follows: […]
# [4] = biological target: T5, CD19 expressed by Nalm6 cells; test: flow cytometry
# T7 sequence (Q9NZQ7 19-238 limits assumed): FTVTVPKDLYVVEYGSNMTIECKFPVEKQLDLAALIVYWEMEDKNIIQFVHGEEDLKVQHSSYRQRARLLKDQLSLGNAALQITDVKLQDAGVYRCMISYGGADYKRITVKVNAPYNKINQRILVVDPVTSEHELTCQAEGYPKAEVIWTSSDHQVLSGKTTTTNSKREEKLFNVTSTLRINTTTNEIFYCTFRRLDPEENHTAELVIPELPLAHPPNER
# T8 sequence (P25942 21-193 limits assumed): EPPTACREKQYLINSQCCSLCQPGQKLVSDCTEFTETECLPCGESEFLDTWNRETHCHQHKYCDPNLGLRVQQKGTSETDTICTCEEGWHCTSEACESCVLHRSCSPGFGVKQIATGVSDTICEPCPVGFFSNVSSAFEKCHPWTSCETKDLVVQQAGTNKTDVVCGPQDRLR
EC50 [1] [µg/mL],EC50 [2] [µg/mL],binding result (h41BB),binding result (hPD-L1),binding result (hVISTA-his),binding result (hLAG3),binding result (hCD40),Maximum mean fluorescence intensity (30 µg/ml) [3],EC50 [4] [µg/mL],Binder
0.00792,–,–,–,–,–,–,–,–,"52F9 fully humanized antibody (recombinant, human IgG1 / kappa) (antibody, V domains shown) VH: QVQLVESGGGVVQAGRSLRLSCAASGFTFSNYGIHWVRQAPGKGLEWVGVIWHDGSIKNYADFVKGRFTISRDNSEDTLYLQMNSLRAEDTAVYYCAREQGNYYGWGSYKAFDIWGQGTMVTVSS VL: DIQLTQSPSFLSVFVGDRVTITCRASQGISNYLAWYQQKPGKAPELLLYATSTLQSGVPSRLSGSGSGTEFTLTLSSLQPEDFATYYCQQVYSFPYTFGQGTKLEIK"
–,0.0249,no binding (tested: 2 µg/ml),no binding (tested: 2 µg/ml),no binding (tested: 2 µg/ml),no binding (tested: 2 µg/ml),no binding (tested: 2 µg/ml),24700,22.9,"31A2 (hybridoma antibody) (antibody, V domains shown, hybridoma mAb from H2L2 mouse (human variable, rat constant regions)) VH: QVQLVESGGGVVQPGRSLRLSCAASGFTFSRHGMHWVRQAPGKGLEWVAVIWYDGSNKYYVDSVKGRFTISRDNSKNTLDLQMNSLRAEDTAVYYCARRSITWDGAFDIWGQGTMVTVSS VL: DIQMTQSPSTLSASVGDRVTISCRASQSISSWLAWYQQKPGKAPKLLIYKASSLESGVPSRFSGSGSGTEFTLTISSLQPDDFATYYCQQYNSAYTFGQGTKLEIK"
0.00446,–,–,–,–,–,–,–,–,"31A2 fully humanized antibody (recombinant, human IgG1 / kappa) (antibody, V domains shown) VH: QVQLVESGGGVVQPGRSLRLSCAASGFTFSRHGMHWVRQAPGKGLEWVAVIWYDGSNKYYVDSVKGRFTISRDNSKNTLDLQMNSLRAEDTAVYYCARRSITWDGAFDIWGQGTMVTVSS VL: DIQMTQSPSTLSASVGDRVTISCRASQSISSWLAWYQQKPGKAPKLLIYKASSLESGVPSRFSGSGSGTEFTLTISSLQPDDFATYYCQQYNSAYTFGQGTKLEIK"
0.00452,–,–,–,–,–,–,–,–,"17B6 fully humanized antibody (recombinant, human IgG1 / kappa) (antibody, V domains shown) VH: QVQLVESGGGVVQPGRSLRLSCEASGFTFSRHGMHWVRQAPGKGLEWVAVIFYDGSQNYYADSVRGRFTISRDNSKNTLSLQMDSLRAEDTAVYYCARRSITWNGGFDIWGQGTMVTVSP VL: DIQMTQSPSTLSASVGDRVTITCRASQSISSWLAWYQQKPGKAPKLLIYKASSLESGVPSRFSGSGSGTEFTLAISSLQPDDFATYYCQQYNRFYTFGQGTKLEIK"
0.00263,–,–,–,–,–,–,–,–,"11H8 fully humanized antibody (recombinant, human IgG1 / kappa) (antibody, V domains shown) VH: QVQLVESGGGVVQPGRSLRLSCAASGFTFSRHGMHWVRQAPGKGLEWVAVIWYDGSNQYYVDSVKGRFTISRDNSKNTLDLQMNSLRVEDTAVYYCARRSITWYGGFDIWGQGTMVTVSS VL: DIQMTQSPSTLSASVGDRVTITCRASQSISSWLAWYQQKPGKAPKLLIYKASSLESGVPPRFSGSGSGTEFTLTISSLQPDDFATYYCQQYNSAYTFGQGTKLEIK"
–,0.0287,no binding (tested: 2 µg/ml),no binding (tested: 2 µg/ml),no binding (tested: 2 µg/ml),no binding (tested: 2 µg/ml),no binding (tested: 2 µg/ml),21700,24.6,"15F2 (hybridoma antibody) (antibody, V domains shown, hybridoma mAb from H2L2 mouse (human variable, rat constant regions)) VH: QVQLVESGGGVVQPGRSLRLSCAASGFTFSRHGMHWVRQAPGKGLEWVAVIWYDGSNKYYVDSVKGRFTISRDNSKNTLDLQMNSLRAEDTAVYYCARRSITWDGAFDIWGQGTMVTVSS VL: DIQMTQSPSTLSASVGDRVTVTCRASQSIRSWLAWYQQKPGKAPKLLIYKASSLESGVPSRFSGSGSGTEFTLTISSLQPDDFATYYCQQYNSAYTFGQGTKLEIK"
0.004,–,–,–,–,–,–,–,–,"27F11 fully humanized antibody (recombinant, human IgG1 / kappa) (antibody, V domains shown) VH: QVQLVESGGGVVQPGRSLRLSCAASGFTFSRHGMHWVRQAPGKGLEWVAVIYYDGSNKYYVDSVKGRFTISRDNSKNTLDLQMNSLRAEDTAVYYCARRSITWNGAFDIWGQGTMVTVSS VL: DIQMTQSPSTLSASVGDRVTISCRASQSISSWLAWYQQKPGKAPKLLIYKASSLESGVPSRFSGSGSGTEFTLTISSLQPDDFATYYCQQYNSAYTFGQGTKLEIK"
–,0.0737,–,–,–,–,–,10400,–,"19D6 (antibody, V domains shown, hybridoma mAb from H2L2 mouse (human variable, rat constant regions)) VH: QVQLVESGGGVVQPGRSLRLSCAASGFTFSRHGMHWVRQAPGKGLEWVAVIWYDGSNKYYVDSVKGRFTISRDNSKNTLDLQMNSLRAEDTAVYYCARRSITWDGAFDIWGQGTMVTVSS VL: DIQMTQSPSTLSASVGDRVTVTCRASQSIRSWLAWYQQKPGKAPKLLIYKASSLESGVPSRFSGSGSGTEFTLTISSLQPDDFATYYCQQYNSAYTFGQGTKLEIK"
0.00378,–,–,–,–,–,–,–,–,"15F2 fully humanized antibody (recombinant, human IgG1 / kappa) (antibody, V domains shown) VH: QVQLVESGGGVVQPGRSLRLSCAASGFTFSRHGMHWVRQAPGKGLEWVAVIWYDGSNKYYVDSVKGRFTISRDNSKNTLDLQMNSLRAEDTAVYYCARRSITWDGAFDIWGQGTMVTVSS VL: DIQMTQSPSTLSASVGDRVTVTCRASQSIRSWLAWYQQKPGKAPKLLIYKASSLESGVPSRFSGSGSGTEFTLTISSLQPDDFATYYCQQYNSAYTFGQGTKLEIK"
–,0.0301,no binding (tested: 2 µg/ml),no binding (tested: 2 µg/ml),no binding (tested: 2 µg/ml),no binding (tested: 2 µg/ml),no binding (tested: 2 µg/ml),23300,11.8,"11H8 (hybridoma antibody) (antibody, V domains shown, hybridoma mAb from H2L2 mouse (human variable, rat constant regions)) VH: QVQLVESGGGVVQPGRSLRLSCAASGFTFSRHGMHWVRQAPGKGLEWVAVIWYDGSNQYYVDSVKGRFTISRDNSKNTLDLQMNSLRVEDTAVYYCARRSITWYGGFDIWGQGTMVTVSS VL: DIQMTQSPSTLSASVGDRVTITCRASQSISSWLAWYQQKPGKAPKLLIYKASSLESGVPPRFSGSGSGTEFTLTISSLQPDDFATYYCQQYNSAYTFGQGTKLEIK"
